Experimental data: patent CN110642952A (SHANGHAI INST OF BIOLOGICAL PRODUCTS CO LTD, dated 2020)
Positions count from the first letter of the chain named. One block for each binder: values may come before it.

Experiments:
HER3 = molecular target: T1, HER3 (human, UniProt P21860 20-643, limits assumed); test: ProteOn XPR36 Protein Interaction Array System (SPR)
T1 construct: also called HER3抗原; HER3蛋白

HER3-ECD融合蛋白 = molecular target: T2, HER3-ECD融合蛋白 (human); test: competition ELISA: Trx-HRG coated (10 μg/ml), HER3-ECD fusion protein 1 μg/ml pre-incubated with antibody, anti-hGH detection
T2 construct: also called HER3-ECD fusion protein

T1 sequence (P21860 20-643 limits assumed): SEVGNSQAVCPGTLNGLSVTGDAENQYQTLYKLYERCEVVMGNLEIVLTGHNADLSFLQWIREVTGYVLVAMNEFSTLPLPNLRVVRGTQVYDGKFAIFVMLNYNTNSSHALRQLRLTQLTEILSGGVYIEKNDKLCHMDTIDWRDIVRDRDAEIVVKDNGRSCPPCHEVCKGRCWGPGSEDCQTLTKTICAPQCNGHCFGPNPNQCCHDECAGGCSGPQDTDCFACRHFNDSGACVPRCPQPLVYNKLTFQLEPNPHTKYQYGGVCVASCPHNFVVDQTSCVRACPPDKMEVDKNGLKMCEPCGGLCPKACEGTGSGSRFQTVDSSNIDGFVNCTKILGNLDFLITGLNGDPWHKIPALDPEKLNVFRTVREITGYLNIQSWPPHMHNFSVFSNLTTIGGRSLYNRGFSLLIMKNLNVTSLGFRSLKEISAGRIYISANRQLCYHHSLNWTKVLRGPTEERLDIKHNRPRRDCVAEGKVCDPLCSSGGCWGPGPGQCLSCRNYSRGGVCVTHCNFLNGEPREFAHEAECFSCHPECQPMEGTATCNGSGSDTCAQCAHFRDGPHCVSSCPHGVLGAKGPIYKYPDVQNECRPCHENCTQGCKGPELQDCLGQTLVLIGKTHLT

- Kd (HER3): 0.166 nM
- IC50 (HER3-ECD融合蛋白): 0.3 nM
B1: HER3鼠源单克隆抗体993 (antibody, V domains shown)
VH: EVKLVESGGGLVKPGGSLKLSCAASGFTFSSYSLSWVRQTPEKRLEWVASITFGGTAYYSDSVKGRFTISRDNARNILYLQMSSLKSEDTAMYYCVRGDGYEDPMDYWGQGTSVTVSS
VL: DIVMTQTTVSLAVSLGQRATISCRASESVDSYGKSFMHWYQQKPGQPPKLLIYRASNLESGIPARFSGSGSRTDFTLTINPVEADDVSTYYCQQSNEDPYTFGGGTKLEIR
notes: Mouse monoclonal antibody from hybridoma ascites, purified on protein G; also called HER3抗体993

- Kd (HER3): 0.525 nM
- IC50 (HER3-ECD融合蛋白): 2.3 nM
B2: HER3鼠源单克隆抗体1044 (antibody, V domains shown)
VH: EVQLQQSGTELMKPGASVKISCKATGGTFSNYWIDWVKQRPGHGLEWIGEILPGSGGTDYNEKFKGKATFTADTSSNTAYMQLSSLTSEDSAVYYCARDDYDVFAYWGQGTLVTVSS
VL: DIVMTQAAFSNPVTLGTSASISCRSSKSLLHSNGITYLYWYLQKPGQSPQLLIYQMSNLASGVPDRFSSSGSGTDFTLRISRVEAEDVGVYYCAQNLELPWTFGGGTKLEIKR
notes: Mouse monoclonal antibody from hybridoma ascites, purified on protein G; also called HER3抗体1044

- Kd (HER3): 4.13 nM
- IC50 (HER3-ECD融合蛋白): 1.5 nM
B3: HER3鼠源单克隆抗体927 (antibody, V domains shown)
VH: EVQLQQSGPELVKPGASVKISCKASGYSFTSYYIHWVKQRPGQGLEWIGWIFPRSGHTNYNEKFKGKATLTADTSSSTAYMQVSSLTSEDSAVYFCARSRDYYGTNAMDYWGQGTSVTVSS
VL: DIVMTQSPSSLTVTAGEKVTMSCKSSQSLFNSGNQKNYLTWYQQKPGQPPKLLIYWASTRESGVPDRFTGSGSGTDFTLTISSVQAEDLAVYYCQNDYSYPYTFGGGTKLEIKR
notes: Mouse monoclonal antibody from hybridoma ascites, purified on protein G; also called HER3抗体927

- Kd (HER3): 5.83 nM
- IC50 (HER3-ECD融合蛋白): 2.8 nM
B4: HER3鼠源单克隆抗体1050 (antibody, V domains shown)
VH: B3 VH with E1Q, R54G, N59K, Y60C, K63N, G66A, V83L, T105S, M108V
VL: B3 VL with F30L, T69S
notes: Mouse monoclonal antibody from hybridoma ascites, purified on protein G; also called HER3抗体1050
